Results: the RNAGym collection of RNA variant scans (doi:10.7554/elife.80360)

B1: HDV Ribozyme (parent)
chain: GGCCGGCAUGGUCCCAGCCUCCUCGCUGGCGCCGGCUGGGCAACAUUCCGAGGGGACCGUCCCCUCGGUAAUGGCGAAUGGGACCCA

Variants of: B1
Test: self-cleavage, relative activity (ratio to wild type); higher = more cleavage; co-transcriptional

Row | Variant | self-cleavage
1 | GGCCGGCAUGGUCCCAGCCUCCUCGCUGGCGCCGGCAGGGCAACAUUCCGAGGGGACCGUACCCUCGGUAAUGGCGAAUGGGACCCA [U37A C61A] | 0.138
2 | GGCCGGCAUGGUCCCAGCCUCCUCGCUGGCGCCGGCCGGGCAACAUUCCGAGGGGACCGUCCCCUCGGUAAUGGCGAAUGGGUCCCA [U37C A83U] | 0.534
3 | GGCCGGCAUGGUCCCAGCCUCCUCGCUGGCGCCGGCAGGGCAACAUUCCGAGCGGACCGUCCCCUCGGUAAUGGCGAAUGGGACCCA [U37A G53C] | 0.162
4 | GGCCGGCAUGGUCCCAGCCUCCUCGCUGGCGCCGGCAGGGCAACAUUCCGAGGGGAUCGUCCCCUCGGUAAUGGCGAAUGGGACCCA [U37A C57U] | 0.146
5 | GGCCGGCAUGGUCCCAGCCUCCUCGCUGGCGCCGGCAGGGCAACAUUCCGAGGGGAACGUCCCCUCGGUAAUGGCGAAUGGGACCCA [U37A C57A] | 0.212
6 | GGCCGGCAUGGUCCCAGCCUCCUCGCUGGCGCCGGCCGGGCAACAUUCCGAGGGGCCCGUCCCCUCGGUAAUGGCGAAUGGGACCCA [U37C A56C] | 1.11
7 | GGCCGGCAUGGUCCCAGCCUCCUCGCUGGCGCCGGCAGGGCAACAUUCCGAGGGGACGGUCCCCUCGGUAAUGGCGAAUGGGACCCA [U37A C58G] | 0.369
8 | GGCCGGCAUGGUCCCAGCCUCCUCGCUGGCGCCGGUUGGGCAACAUUCCGAGGGGACCGUCCCCUCGGUAACGGCGAAUGGGACCCA [C36U U72C] | 0.102
9 | GGCCGGCAUGGUCCCAGCCUCCUCGCUGGCGCCGGUUGGGCAACAUUCCGAGGGGACCGUCCCCUCGGUAAGGGCGAAUGGGACCCA [C36U U72G] | 0.431
10 | GGCCGGCAUGGUCCCAGCCUCCUCGCUGGCGCCGGCAGGGCAACAUUCCGAGGGGACCGUCCCCUCGGUAAUGGCGAAUGGGAGCCA [U37A C84G] | 0.151
11 | GGCCGGCAUGGUCCCAGCCUCCUCGCUGGCGCCGGCAGGGCAACAUUCCGAGGGGACCGUCCCCUCGGGAAUGGCGAAUGGGACCCA [U37A U69G] | 0.369
12 | GGCCGGCAUGGUCCCAGCCUCCUCGCUGGCGCCGGCAGGGCAACAUUCCGAGGGGACCGUCCCCUCGGUAAUGGCGAAUGGAACCCA [U37A G82A] | 0.138
13 | GGCCGGCAUGGUCCCAGCCUCCUCGCUGGCGCCGGUUGGGCAACAUUCCGAGGGGACCGUCCCCUCGGUAAUGGCGAAUGCGACCCA [C36U G81C] | 0.12
14 | GGCCGGCAUGGUCCCAGCCUCCUCGCUGGCGCCGGUUGGGCAACAUUCCGAGGGGACCGUCCCCUCGGUAAUGGCGAAUGUGACCCA [C36U G81U] | 0.29
15 | GGCCGGCAUGGUCCCAGCCUCCUCGCUGGCGCCGGCAGGGCAACAUGCCGAGGGGACCGUCCCCUCGGUAAUGGCGAAUGGGACCCA [U37A U47G] | 0.222
16 | GGCCGGCAUGGUCCCAGCCUCCUCGCUGGCGCCGGCAGGGCAACAUUCCGAGGGGACCGUCCCCUUGGUAAUGGCGAAUGGGACCCA [U37A C66U] | 0.314
17 | GGCCGGCAUGGUCCCAGCCUCCUCGCUGGCGCCGGCAGGGCAACAUUCCGAGGGGACCGUCCCCUAGGUAAUGGCGAAUGGGACCCA [U37A C66A] | 0.29
18 | GGCCGGCAUGGUCCCAGCCUCCUCGCUGGCGCCGGCAGGGUAACAUUCCGAGGGGACCGUCCCCUCGGUAAUGGCGAAUGGGACCCA [U37A C41U] | 0.403
19 | GGCCGGCAUGGUCCCAGCCUCCUCGCUGGCGCCGGCAGGGCAAGAUUCCGAGGGGACCGUCCCCUCGGUAAUGGCGAAUGGGACCCA [U37A C44G] | 0.0898
20 | GGCCGGCAUGGUCCCAGCCUCCUCGCUGGCGCCGGCAGGGCAACAUUCCGAGGGGACCGUCCCCUCGGUAAUGGCGACUGGGACCCA [U37A A78C] | 0.0997
21 | GGCCGGCAUGGUCCCAGCCUCCUCGCUGGCGCCGGCAGGGCAACAUUCCGAGGGGACCGUCCCCUCGGUAAUGGCGAUUGGGACCCA [U37A A78U] | 0.0369
22 | GGCCGGCAUGGUCCCAGCCUCCUCGCUGGCGCCGGCAGGGCAACAUUCAGAGGGGACCGUCCCCUCGGUAAUGGCGAAUGGGACCCA [U37A C49A] | 0.161

Row | Variant | self-cleavage
23 | GGCCGGCAUGGUCCCAGCCUCCUCGCUGGCGCCGGCAGGGCAACAUUCCGGGGGGACCGUCCCCUCGGUAAUGGCGAAUGGGACCCA [U37A A51G] | 0.302
24 | GGCCGGCAUGGUCCCAGCCUCCUCGCUGGCGCCGGCAGGGCAACAUUCCGACGGGACCGUCCCCUCGGUAAUGGCGAAUGGGACCCA [U37A G52C] | 0.213
25 | GGCCGGCAUGGUCCCAGCCUCCUCGCUGGCGCCGGCAGGGCAACAUUCCGAGGGGACCGUCCCCUCGGUAAUGGCGAAUGGGACACA [U37A C85A] | 0.332
26 | GGCCGGCAUGGUCCCAGCCUCCUCGCUGGCGCCGGCAGGGCAACAUUACGAGGGGACCGUCCCCUCGGUAAUGGCGAAUGGGACCCA [U37A C48A] | 0.208
27 | GGCCGGCAUGGUCCCAGCCUCCUCGCUGGCGCCGGCAGGGCAACAUUCCGAGGGGACCGUCCUCUCGGUAAUGGCGAAUGGGACCCA [U37A C63U] | 0.339
28 | GGCCGGCAUGGUCCCAGCCUCCUCGCUGGCGCCGGCAGGGCAACAUUCCGAGGGGACCGUCCCCGCGGUAAUGGCGAAUGGGACCCA [U37A U65G] | 0.244
29 | GGCCGGCAUGGUCCCAGCCUCCUCGCUGGCGCCGGCAGGGCAACAUUCCGAGGGGACCGUCACCUCGGUAAUGGCGAAUGGGACCCA [U37A C62A] | 0.212
30 | GGCCGGCAUGGUCCCAGCCUCCUCGCUGGCGCCGGCAGGGCAACAUUCCGAGGGGACCGUCUCCUCGGUAAUGGCGAAUGGGACCCA [U37A C62U] | 0.104
31 | GGCCGGCAUGGUCCCAGCCUCCUCGCUGGCGCCGGCAGGGCAACAUUCCGAGGGGACCGUCCCCUCGGUACUGGCGAAUGGGACCCA [U37A A71C] | 0.19
32 | GGCCGGCAUGGUCCCAGCCUCCUCGCUGGCGCCGGCAGGGCAACAUUCCGAGGGGACCGUCCCCUCGGUAUUGGCGAAUGGGACCCA [U37A A71U] | 0.394
33 | GGCCGGCAUGGUCCCAGCCUCCUCGCUGGCGCCGGUUGGGCAACAUUCCGAGGGGACCGUCCCCUCGGGAAUGGCGAAUGGGACCCA [C36U U69G] | 0.519
34 | GGCCGGCAUGGUCCCAGCCUCCUCGCUGGCGCCGGUUGGGCAACAUUCCGAGGGGACCAUCCCCUCGGUAAUGGCGAAUGGGACCCA [C36U G59A] | 0.704
35 | GGCCGGCAUGGUCCCAGCCUCCUCGCUGGCGCCGGCCGGGCAGCAUUCCGAGGGGACCGUCCCCUCGGUAAUGGCGAAUGGGACCCA [U37C A43G] | 0.332
36 | GGCCGGCAUGGUCCCAGCCUCCUCGCUGGCGCCGGCAGGGCAACAUUCCGAGGGGACCGUCCCCUCGGUAAAGGCGAAUGGGACCCA [U37A U72A] | 0.125
37 | GGCCGGCAUGGUCCCAGCCUCCUCGCUGGCGCCGGCAGGGCCACAUUCCGAGGGGACCGUCCCCUCGGUAAUGGCGAAUGGGACCCA [U37A A42C] | 0.246
38 | GGCCGGCAUGGUCCCAGCCUCCUCGCUGGCGCCGGCAGGGCUACAUUCCGAGGGGACCGUCCCCUCGGUAAUGGCGAAUGGGACCCA [U37A A42U] | 0.131
39 | GGCCGGCAUGGUCCCAGCCUCCUCGCUGGCGCCGGCAGGGCAACAUUCCGAGGGGACCGUCCCCUCCGUAAUGGCGAAUGGGACCCA [U37A G67C] | 0.128
40 | GGCCGGCAUGGUCCCAGCCUCCUCGCUGGCGCCGGUUGGGCAACAUUCCGAGGGGACCGUCCCCUCUGUAAUGGCGAAUGGGACCCA [C36U G67U] | 0.431
41 | GGCCGGCAUGGUCCCAGCCUCCUCGCUGGCGCCGGUUGGGCAACAUUCCGAGGGGACCGUCCCCUCAGUAAUGGCGAAUGGGACCCA [C36U G67A] | 0.712
42 | GGCCGGCAUGGUCCCAGCCUCCUCGCUGGCGCCGGUUGGGCAACAAUCCGAGGGGACCGUCCCCUCGGUAAUGGCGAAUGGGACCCA [C36U U46A] | 0.462
43 | GGCCGGCAUGGUCCCAGCCUCCUCGCUGGCGCCGGCCGGGCAACUUUCCGAGGGGACCGUCCCCUCGGUAAUGGCGAAUGGGACCCA [U37C A45U] | 0.639
44 | GGCCGGCAUGGUCCCAGCCUCCUCGCUGGCGCCGGCAGGGCAACAUUCCGAGGGGACCGUCCCCUCGGUAAUGUCGAAUGGGACCCA [U37A G74U] | 0.208

Row | Variant | self-cleavage
45 | GGCCGGCAUGGUCCCAGCCUCCUCGCUGGCGCCGGCCGGGCCACAUUCCGAGGGGACCGUCCCCUCGGUAAUGGCGAAUGGGACCCA [U37C A42C] | 0.115
46 | GGCCGGCAUGGUCCCAGCCUCCUCGCUGGCGCCGGCCGGGCAAUAUUCCGAGGGGACCGUCCCCUCGGUAAUGGCGAAUGGGACCCA [U37C C44U] | 0.529
47 | GGCCGGCAUGGUCCCAGCCUCCUCGCUGGCGCCGGCAGGGCAACAUUCCGAGGGGACCGUCCCCUCGGUAAUGGCGAAUGGGACCAA [U37A C86A] | 0.256
48 | GGCCGGCAUGGUCCCAGCCUCCUCGCUGGCGCCGGCAGGGCAACAUUCCGAGGGGACCGUCCCCUCGGUAAUGGCGAAUGGGACCUA [U37A C86U] | 0.35
49 | GGCCGGCAUGGUCCCAGCCUCCUCGCUGGCGCCGGCAGAGCAACAUUCCGAGGGGACCGUCCCCUCGGUAAUGGCGAAUGGGACCCA [U37A G39A] | 0
50 | GGCCGGCAUGGUCCCAGCCUCCUCGCUGGCGCCGGCAGUGCAACAUUCCGAGGGGACCGUCCCCUCGGUAAUGGCGAAUGGGACCCA [U37A G39U] | 0.122
51 | GGCCGGCAUGGUCCCAGCCUCCUCGCUGGCGCCGGCCGGGCAACAUUCCGAGGGGACCGUCCCCUCGGUUAUGGCGAAUGGGACCCA [U37C A70U] | 0.974
52 | GGCCGGCAUGGUCCCAGCCUCCUCGCUGGCGCCGGUUGGGCAACAUUCCGAGAGGACCGUCCCCUCGGUAAUGGCGAAUGGGACCCA [C36U G53A] | 0.641
53 | GGCCGGCAUGGUCCCAGCCUCCUCGCUGGCGCCGGCAGGGCAACAUUCCGAGGGUACCGUCCCCUCGGUAAUGGCGAAUGGGACCCA [U37A G55U] | 0.0723
54 | GGCCGGCAUGGUCCCAGCCUCCUCGCUGGCGCCGGCAGGGCAACAUUCCGAGGAGACCGUCCCCUCGGUAAUGGCGAAUGGGACCCA [U37A G54A] | 0.104
55 | GGCCGGCAUGGUCCCAGCCUCCUCGCUGGCGCCGGCAGGGCAACAUUCCGAGGUGACCGUCCCCUCGGUAAUGGCGAAUGGGACCCA [U37A G54U] | 0.245
56 | GGCCGGCAUGGUCCCAGCCUCCUCGCUGGCGCCGGUUGGGCAACAUUCCGAUGGGACCGUCCCCUCGGUAAUGGCGAAUGGGACCCA [C36U G52U] | 0.72
57 | GGCCGGCAUGGUCCCAGCCUCCUCGCUGGCGCCGGCAGGGCAACAUUCCGAGGGGACCGUCCCCUCGGUAAUGGCUAAUGGGACCCA [U37A G76U] | 0.469
58 | GGCCGGCAUGGUCCCAGCCUCCUCGCUGGCGCCGGUUGGGCAACAUUCCGAGGAGACCGUCCCCUCGGUAAUGGCGAAUGGGACCCA [C36U G54A] | 0.494
59 | GGCCGGCAUGGUCCCAGCCUCCUCGCUGGCGCCGGUUGGGCAACAUUCCGAGGGGACCGUCCCCUCGGUAAUGGCGAAAGGGACCCA [C36U U79A] | 0.253
60 | GGCCGGCAUGGUCCCAGCCUCCUCGCUGGCGCCGGUUGGGCAACAUUCCGAGGGGACCGUCCCCUCGGUAAUGGCGAACGGGACCCA [C36U U79C] | 0.201
61 | GGCCGGCAUGGUCCCAGCCUCCUCGCUGGCGCCGGCACGGCAACAUUCCGAGGGGACCGUCCCCUCGGUAAUGGCGAAUGGGACCCA [U37A G38C] | 0.0923
62 | GGCCGGCAUGGUCCCAGCCUCCUCGCUGGCGCCGGUUGGGCAACAUUCCGAGGGAACCGUCCCCUCGGUAAUGGCGAAUGGGACCCA [C36U G55A] | 0.612
63 | GGCCGGCAUGGUCCCAGCCUCCUCGCUGGCGCCGGCCGGGCAACAUUCCGAGGGGACCGUCCCCUCGGUAAUGGCGAAUGGGACCCG [U37C A87G] | 1.09
64 | GGCCGGCAUGGUCCCAGCCUCCUCGCUGGCGCCGGCCGGGCAACAUUCCGAGGGGACCGUCCCCUCGGUAAUGGCGAAUGGGACCCC [U37C A87C] | 1.21
